# Measurements from IntAct's records for PubMed 16834335.
# B1: Modulator of FtsH protease HflC (Escherichia coli (strain K12)), P0ABC3 (parent)
# chain: MRKSVIAIIIIVLVVLYMSVFVVKEGERGITLRFGKVLRDDDNKPLVYEPGLHFKIPFIETVKMLDARIQTMDNQADRFVTKEKKDLIVDSYIKWRISDFSRYYLATGGGDISQAEVLLKRKFSDRLRSEIGRLDVKDIVTDSRGRLTLEVRDALNSGSAGTEDEVTTPAADNAIAEAAERVTAETKGKVPVINPNSMAALGIEVVDVRIKQINLPTEVSEAIYNRMRAEREAVARRHRSQGQEEAEKLRATADYEVTRTLAEAERQGRIMRGEGDAEAAKLFADAFSKDPDFYAFIRSLRAYENSFSGNQDVMVMSPDSDFFRYMKTPTSATR
# partner: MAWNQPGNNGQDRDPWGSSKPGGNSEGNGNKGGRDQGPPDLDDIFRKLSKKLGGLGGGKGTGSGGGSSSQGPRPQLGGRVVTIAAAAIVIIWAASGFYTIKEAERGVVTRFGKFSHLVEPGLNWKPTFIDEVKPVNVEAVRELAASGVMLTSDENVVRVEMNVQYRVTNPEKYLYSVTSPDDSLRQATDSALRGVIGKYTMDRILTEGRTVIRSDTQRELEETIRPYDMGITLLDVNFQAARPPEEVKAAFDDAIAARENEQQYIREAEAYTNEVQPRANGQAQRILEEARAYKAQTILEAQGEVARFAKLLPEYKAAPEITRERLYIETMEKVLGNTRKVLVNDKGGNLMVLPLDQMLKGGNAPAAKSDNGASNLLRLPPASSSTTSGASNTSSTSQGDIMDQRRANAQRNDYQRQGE
# Variants of: B1
# Conditions: with hflk_ecoli hflK
row,Variant,effect of a mutation on the interaction
1,A286I,decreasing interaction strength
